Consider one substance from PMC7251095.

The target in the assay is E. coli F1Fo ATP synthase subunit b (cysteine free) (E. coli) (UniProt P0ABA0). Description: cryo-EM structure; detergent-solubilized (digitonin) cysteine free E. coli F1Fo ATP synthase at 11 μM with 10 mM MgADP, 22 °C for 30 s before freezing; 300 kV; nine sub-states and a Fo focused map of Sub-state 3A.

Substance “E. coli F1Fo ATP synthase subunit b (cysteine free) (from UniProt P0ABA0 1-156) (natural protein)” returned a stoichiometry N of 2.
